From the supplement of paper PMC9170038

Tested on: K4 kissing-loop RNA reporter
Assay: apparent KD of K4 kissing-loop reporter; higher = weaker reporter binding
Conditions: Eterna round: R107
Method: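 RNA-MaP round R107: designed RNA switches with theophylline, tryptophan, arginine or FMN aptamers are transcribed on-chip within common flanks. They are titrated with a labelled K4 kissing-loop RNA reporter in RNA-MaP buffer (100 mM Tris pH 7.5, 80 mM KCl, 4 mM MgCl2), without ligand or with the indicated ligand. Median apparent KD per design.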

[1] = input ligand: theophylline 20 uM
[2] = input ligand: tryptophan 2.4 mM
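Further: bound reporter read as fluorescence of individual clusters on recovered sequencing chips by microscopy, with normalized cluster intensities fitted with a binding model.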

Sequence | apparent KD of K4 kissing-loop reporter (input ligand: FMN 200 uM) | apparent KD of K4 kissing-loop reporter (input ligand: arginine 13.2 mM) | apparent KD of K4 kissing-loop reporter (input ligand: none) | apparent KD of K4 kissing-loop reporter [1] | apparent KD of K4 kissing-loop reporter [2]
GCCGUAGAUGGAAGGAGCGUGUCAAAGUGAUGUUUUGAUUAACUCCCUUAGGGAAAGAUGGCACAGGUAGGUCGCCAUCUACGGC | 104 nM | 74.2 nM | 102 nM | 131 nM | 90.4 nM
GCCGUAGAUUGAAGGAGCGCCUUCUUACCAAGAGUGAUGUUCUUAGGUACCAUGUUCAGUAGGCAGGUAGGUCGCAAUCUACGGC | 499 nM | 441 nM | 484 nM | 647 nM | 489 nM
GCCGUAGAUUGAAGGAGCGUGGAACUAUGGCUUGAACAGUGAUGUUGUUUAUCUAGGUAGCCACAGGUAGGUCGCAAUCUACGGC | 266 nM | 201 nM | 234 nM | 182 nM | 178 nM
GCCUACGAUGCAGGAUAUAGCUCGCGAGUGAUGUUCGCAGCUGUAUGGUAGUAAACUUCCACGUGUCUAGAAGGGCAUCGUAGGC | 111 nM | 79.7 nM | 91.6 nM | 80 nM | 90.7 nM
GCCUAGCAGGGAAGGAGCGCCAUAUAAUUAAAAGGUAAUUAAUGAGUGAUGUUCAAAUAAUGGCAGGUAGGUCGCCCUGCUAGGC [KL-SSArg B10] | 316 nM | 277 nM | 283 nM | 354 nM | 283 nM
GCGAACAUUCGCAGUGAUGUUGCGACGGAAGGAGCGCGUGAAAACGCAGGUAGGUCGCCGACAUACUUAAUUUUACAGUGUUCGC [Arginine A K4 29] | 268 nM | 191 nM | 294 nM | 247 nM | 194 nM
GCGCGCGUUUUAGAUACCAGCCAGUGAUGUUGGCGAGGAUUCUGGAGCGUAGUGUCAAAUGGCCCUUGGCAGCUAACACGCGGCU [Zabea] | 117 nM | 108 nM | 119 nM | 134 nM | 123 nM
GCGCGGGAGUGAUGUUCCAAGUGGUGUUAACGAGGACCGGUACGGCCGCCACUCGAUACGGCCGGGCCGUAGGAUAAACUGGCGC [Same State - Tryptophan A (Freestyle 14)] | 405 nM | 376 nM | 441 nM | 318 nM | 408 nM
GCGCGGGAGUGAUGUUCCAAGUGGUGUUAACGAGGACCGGUACGGCCGCCACUCGUUACGGCCGGGCCGUAGGAUACACUGGCGC [Same State - Tryptophan A (Freestyle 16)] | 168 nM | 242 nM | 274 nM | 471 nM | 415 nM
GCGCGUCAUGUCAGCGGUGACACUGUCGAUACCAGCGCCGCAAGGCGCCCUUGGCAGCGACGCGCUGGAGUGAUGUUCCAGCGUG [#2 Exclusion - Theophylline A Attempt #14 (HarryS)] | 154 nM | 148 nM | 164 nM | 143 nM | 169 nM
GCGCGUCAUGUCAGCGGUGCCUAUGUCGAUACCAGCGCCGCAAGGCGCCCUUGGCAGCGACGCGCUGGAGUGAUGUUCCAGCGUG [#2 Exclusion - Theophylline A Attempt #11 (HarryS)] | 148 nM | 127 nM | 153 nM | 138 nM | 132 nM
GCGUAUGAUGCUCAAAGAGUAUCUCCCGAUACCAGUAUGGAAACAUACCCUUGGCAGCGGGUAACUGCCCAGUGAUGUUGGACGC [Theophylline A K4 9] | 430 nM | 253 nM | 351 nM | 394 nM | 326 nM
GCUACCUAUGCAGGAUAUGGUAUUACGAGUGAUGUUCGAGGCGAAUAGAGUGAUGUUCUAUUUCCACCAGAAGGGCAUAGGUAGC | 143 nM | 97.1 nM | 125 nM | 136 nM | 124 nM
GCUAUGGUAGGAAGGAGCGCGGACGAUAUUUAUCGAGUGAUGUUCGAUUAAUUAAUUUUAACGCAGGUAGGUCGCCUACUAUAGC [Arginine B K4 28] | 135 nM | 82.2 nM | 105 nM | 88.2 nM | 106 nM
GGAACUACGACGGCCGCCACUCUGUAUCCCAACGUUAAGGUCCUAACUGCAAGUGAUGUUUGUGCGAGGACCGGGUCUCCCUUGC [theeternabot_exclusion_KL_Trp_B_30] | 258 nM | 213 nM | 272 nM | 218 nM | 217 nM
GGACGACAGUCGGCCGCCACUCACAGCAGCCAGUGAUGUUGGAUUGUAGCGGAGUGAUGUUUCGCGAGGACCGGGACUGCAGUCC [Same State Tryptophan B GF 14] | 190 nM | 171 nM | 227 nM | 226 nM | 199 nM
GGACUCAAAUGUAGUGAUGUUACAAGCGAUACCAGUAUCUAACAUUACCCUUGGCAGCGCGCCCAGCUCAGCAAAUUAGAUAGCG [theeternabot_sameState_KL_Theo_A_43] | 149 nM | 204 nM | 178 nM | 268 nM | 114 nM
GGAGGGAUCUCGGCCGCCACUCAUAAGAAAUGGGCCUCAGGGAUAUAGUGAUGUUAUGUAAAGAAGAGGACCGGGAGAAAGAAGG [ExTryptoB.Dc] | 263 nM | 245 nM | 248 nM | 348 nM | 175 nM
GGAGUUACCUGGGAUACCAGUCGGAGUCUCAGAGCACAGAGUGAUGUUCUGGGAUGUUUCGGCCCUUGGCAGCUCUGGGACUCCA [#2 Exclusion - Theophylline B Attempt #14 (HarryS)] | 386 nM | 359 nM | 403 nM | 265 nM | 351 nM
GGAUAGGACAAAGGAUAUGGGCUAGGCAAGAAUAACUUGUCUAGCAAAUCCAUGAGGAGUGAUGUUCCAGAAGGUUGUCCUAUCG [FmnBX 1 A11+U75] | 624 nM | 116 nM | 122 nM | 127 nM | 107 nM
GGAUAGGACAGAGGAUAUCCUAAAGAGGCAAGAAUAACUUGUCUCAAAUGGAUGACCAGUGAUGUUGGAGAAGGCUGUCCUAUCG [FmnBX 6 - #SwitchBubble #StaticStem] | 406 nM | 194 nM | 207 nM | 147 nM | 178 nM
GGAUAGGACAGAGGAUAUGGUAGUGAUGUUACCAAACUGGUUACUCUUGUCAGAAAACUGGCAUUUCCAGAAGGCUGUCCUAUCG [KL-XFMN-B11] | 599 nM | 75.1 nM | 92.2 nM | 84.9 nM | 104 nM

Sequence | apparent KD of K4 kissing-loop reporter (input ligand: FMN 200 uM) | apparent KD of K4 kissing-loop reporter (input ligand: arginine 13.2 mM) | apparent KD of K4 kissing-loop reporter (input ligand: none) | apparent KD of K4 kissing-loop reporter [1] | apparent KD of K4 kissing-loop reporter [2]
GGAUAGGACUGAGGAUAUGGUAGUGAUGUUACCAAACUGGUUAAACAUGUCAGAAAACUGGCAUGACCAGAAGGCGGUCCUAUCG [FmnBX 27 U10+G76] | 104 nM | 65.5 nM | 72.5 nM | 55.3 nM | 57.2 nM
GGAUAGGAUAGAGGAUAUGGUUUAUGCAGGAAUAACUUAUUGUGUAAAUCCAUAGGGAGUGAUGUUCCAGAAGGCUGUCCUAUCG [MatMod 14 - Jieux - Exclusion - FMN B] | 379 nM | 218 nM | 230 nM | 249 nM | 183 nM
GGAUCCACCAGUGAUGUUGGAGAAAACUCCAAGGAUAUGACGAAAGUCAGAAGGUGGUAGACUGGACAAAGUCCGGUCGGAUCCA [FmnA 23 #SwitchBubble #K4Early] | 719 nM | 113 nM | 126 nM | 68.1 nM | 160 nM
GGAUCCACCAGUGAUGUUGGAGAAAACUCGAAGGAUAUGACGAAAGUCAGAAGGUUGUAGACUGGACAAAGUCCGGUCGGAUCCA [FmnA 23 G30+U56] | 843 nM | 466 nM | 549 nM | 590 nM | 421 nM
GGAUCCACCAGUGAUGUUGGAGAAAACUCUAAGGAUAUGACGAAAGUCAGAAGGUGGUAGACUGGACAAAGUCCGGUCGGAUCCA [FmnA 23 U30] | 1210 nM | 177 nM | 397 nM | 262 nM | 347 nM
GGAUUGCCAGUGAUGUUGGCAUAAACUGAAGGAGCGCGUGAAAACGCAGGUAGGUCGCAGAACCUUGCCAACUGAUCGAAAGAUC [Ex Arginine A K4 29] | 123 nM | 138 nM | 121 nM | 122 nM | 106 nM
GGCACUUUUGCUUGGAACCGUCAAGCUCUAUAGGAUAUGCCGAAAGGCAGAAGGAUGGACCUACAGAGUGAUGUUCUGCGUGCCU | 393 nM | 140 nM | 583 nM | 134 nM | 218 nM
GGCAUAUAAAAUUGCCUAGAGAGAAAGGAUACCAGCACCCGGCGGUGCCCUUGGCAGCCUAGCCCAGUGAUGUUGGGUCCUCUAA [Esinvege] | 237 nM | 130 nM | 189 nM | 235 nM | 223 nM
GGCCGAAGAGAAGGAUAUGGUUUCACGCGUCGUUAGUGAUGUUAAUGCGCAUGCCUUAGUAUAGAGCCAGAAGGUCUGGUCAGAA [theeternabot_sameState_KL_FMN_B_34] | 170 nM | 199 nM | 219 nM | 210 nM | 213 nM
GGCCGGAAGGCGGCCGCCACUCAGUGAUGUUGUGUGAAAGAAAAGAAAAGAAGAAAGAAAAGAAAGAGGACCGGGCCAAACGGCC | 257 nM | 224 nM | 504 nM | 643 nM | 580 nM
GGGAGCAAAGCUCCCGGAUGCUAUAGUCAGGAGGAUAUCUGGAAACAGAGAAGGCCUAAGCCAGUGAUGUUGGCUAUAAGCAUCC | 475 nM | 406 nM | 757 nM | 629 nM | 589 nM
GGGAGUAGUGCGGCCGCCACUGAGAAAGAAGAAGAAUAUAGUGAUGUUAUAUAGGAAGGGAAGAAUAGGACCGGGCAUUAGAUUU [SSTRyptB.Z] | 336 nM | 250 nM | 340 nM | 275 nM | 233 nM
GGGAGUAGUGCGGCCGCCACUGUGAAAGUAGAAGAAUAUAGUGAUGUUAUAUAGGAUUAAAAGAAUAGGACCGGGCAUUAGAUUU [SSTRyptB.W] | 176 nM | 207 nM | 219 nM | 186 nM | 209 nM
GGGUUUGACGGAGGAUAUGCACUGAGGAGGAGAAUAUAGUGAUGUUAUAUAAGAGGAAGGAGAAGAGUAGAAGGCCGUUGGGUUU [SSFMNB.L] | 124 nM | 131 nM | 139 nM | 165 nM | 104 nM
GGUAGCAUGGCGGCCGCCACUAAGAGAGUGAUGUUCUCUUAGUUUUUUGAUGUGUUAUCAAUUCUUAGGACCGGGCCAUGCUACC | 111 nM | 92.4 nM | 98.2 nM | 99.8 nM | 109 nM
GGUAGCAUGGCGGCCGCCACUCGCUAGUGAUGUUAGCGGGAUGAGACAAAGGACAUAACUUUAUCGAGGACCGGGCCAUGCUACC | 88.2 nM | 66.5 nM | 75.8 nM | 62.2 nM | 92.9 nM
GGUAGCAUGGCGGCCGCCACUCUUCAUUAGUGAUGUUAAUGCCGAGUGCGCUAACUCCAACAGGAGAGGACCGGGCCAUGCUACC | 532 nM | 445 nM | 501 nM | 760 nM | 98.8 nM
GGUAGCAUGGCGGCCGCCACUCUUCAUUAGUGAUGUUAAUGCCGAGUGCGCUAACUCCGCCAGGAGAGGACCGGGCCAUGCUACC | 397 nM | 302 nM | 406 nM | 407 nM | 185 nM
GGUAGCAUGGCGGCCGCCACUUAAUCACUCCAGGAUGAGGAAUAUAAGCAGUGAUGUUGCUAAGUAAGGACCGGGCCAUGCUACC | 269 nM | 271 nM | 327 nM | 354 nM | 201 nM
GGUCGCCUGAGCAGUGAUGUUGCAAGGGAAGGAGCGCGUUUUUUCGCAGGUAGGUCGCCCAAAUAAUAAGUUAAACUAGGCGACC [4.)] | 221 nM | 144 nM | 149 nM | 316 nM | 205 nM
GGUGAUGAGCACGAUACCAGCCUCGGAGCCAGUGAUGUUGGCCCAAUUUAAAAUAAGAUAGGCCCUUGGCAGCGUGACGAUGGCU [Rainle] | 727 nM | 727 nM | 711 nM | 466 nM | 643 nM
GGUGCUGUUUGUGCCGCCUUCCUCGUUCCUCGAGGACCGGUACGGCCGCCACUCGAGUGAUGUUUGGGUAGCGAUCCCUGCUAGC [Bdazzled - #14 Exc. Tryptophan A] | 470 nM | 538 nM | 1370 nM | 566 nM | 413 nM
